Measurements: publication PMC8386734

How the values were obtained:
[1] = biological target: DS-Cav1, prefusion-stabilized form of the RSV fusion (F) glycoprotein (human respiratory syncytial virus | not stated); test: crystal structure
[2] = biological target: DS-Cav1, prefusion-stabilized form of the RSV fusion (F) glycoprotein (human respiratory syncytial virus | not stated); test: cryo-EM structure

## DS-Cav1, prefusion-stabilized form of the RSV fusion (F) glycoprotein (natural protein)
[1]
  stoichiometry N: 3
[2]
  stoichiometry N: 3
